According to patent US9073976B2, “ND2 peptides and methods of treating neurological disease” (NoNO Inc., priority 2010, dated 2015):
“Also recorded” adds a separate entry of the source. No end group written: not given here. *: point of attachment. Myristoyl = CCCCCCCCCCCCCC(=O)*

How the values were obtained:
[1] = molecular target: T1, Src 40-58 (Homo sapiens, UniProt P12931, A55V); assay: Dot blot of GST-ND2 fragments probed with biotinylated Src 40-58; type: binding; settings: GST-fusion proteins spotted 1-10 ug, biotinylated peptide ~15 ug/ml, 2 hours
T1 construct: KPASADGHRG P SAAFVPAA
Protocol: GST-fusion proteins were designed using different fragments of ND2 and expressed and purified using standard protocols. These purified proteins were spotted onto membranes for probing with biotinylated Src 40-58 peptide or a scrambled control peptide (sSrc 40-58). In general, 1-10 ug of peptide or recombinant protein was spotted onto nitrocellulose and dried overnight. Membranes were blocked with 5% milk for 1 h at room temperature, then incubated with biotinylated peptides (˜15 ug/ml) for 2 hours the washed using standard wash buffers. Bound probe was detected using a short incubation with streptavidin conjugated to horseradish peroxidase (SA-HRP) and standard detection reagents, predominantly chemiluminescence kits. […] Further GST-constructs were made to narrow the core Src binding regions (FIG. 2A). Dot blots were made with these constructs and tested for their ability to capture biotinylated Src 40-58 (FIG. 2B).
(§1) Further GST constructs were made to identify the amino acid sequences in ND2.1.4 responsible for binding to Src 40-58 (FIG. 3A). Although these sequences are minimally responsible for binding, sequences corresponding to ND2 these sequences as well as those flanking them could be used for inhibition of the Src-ND2 interaction. […] As before, interactions with all of the fragments were confirmed in an ELISA assay (FIG. 3C), and the top binders were ND2 310-321, ND2 289-309, ND2 299-318, ND2 307-321 and full length ND2. […] All fragments tested were able to bind Src40-58 more strongly than the negative control peptide sSrc 40-58.

[2] = molecular target: T1, Src 40-58; assay: ELISA of coated ND2 constructs with biotin-Src 40-58; type: binding; settings: biotin-Src 40-58 at 6 uM
Protocol: GST-ND2, GST-ND2.1 or GST-ND2.1.4 were coated onto ELISA wells by incubating at the indicated concentration under standard conditions. Wells were blocked using 5% milk, and either biotin-Src 40-58 (FIG. 2C top) or biotin-sSrc 40-58 (bottom) were incubated at 6 uM.
as §1

[3] = molecular target: T2, binding of biotinylated Src40-49 to ND2 310-321 (Homo sapiens, UniProt P03891+P12931); assay: Competition ELISA, binding of biotinylated Src40-49 to coated ND2 310-321; settings: FIG. 5D, FIG. 7
T2 construct: 7; NVKMKWQFEHTK; KPASADGHRG
Protocol: Competition ELISAs were also performed. […] In a similar manner, ND2 constructs bearing amino acid sequences from the 300-321 region are able to act as inhibitors of the interaction between ND2 and Src.

[4] = molecular target: T3, ND2 310-321 (Homo sapiens, UniProt P03891); assay: Dot blot of Src fragments probed with biotinylated ND2 310-321; type: binding; settings: FIG. 5A
T3 construct: 7; NVKMKWQFEHTK
Protocol: (§2) Src40-49-Tat indicate a fusion peptide in which the human HIV-1 tat protein transduction domain [[…]] […] (SEQ ID NO:10). […] The peptides were plated at a concentration of ˜5 uM.

[5] = molecular target: T4, Tat-ND2 310-321 (Homo sapiens, UniProt P03891); assay: ELISA plate coated with Tat-ND2 310-321, binding of biotinylated Src peptides; settings: FIG. 5C
T4 construct: 10; Tat-ND2 310-321; […]
Protocol: as §2

[6] = Arterial blood pressure after rapid high-dose intravenous bolus; settings: ~25 mg/kg bolus injection into the tail vein
Protocol: Rats with surgically implanted devices to measure arterial pressure were dosed with ˜25 mg/kg of the respective peptides as a bolus injection into the tail vein at 10 minutes post monitoring.

[7] = tested on: rats subjected to 3PVO; assay: Three pial vessel occlusion (3PVO) model of stroke, infarct volume; type: in vivo, rat
Protocol: The efficacy of ND2 inhibitors in the treatment of stroke was examined using the three pial vessel occlusion (3PVO) model of stroke. This is a permanent model of stroke that creates small but consistent infarcts at 24 hours.
Male Sprague Dawley rats (n=10 in each group) were surgically subjected to permanent occlusion of the pial vessels. One hour post-surgery, animals were given an intravenous injection of Saline, Tat-NR2B9c (Aarts et al, Science, 2002), Src 40-49-Tat or Tat-ND2 310-321 and allowed to further recover in their cages. 24 hours after surgery, brains were harvested, sliced and incubated with TTC to visualize the areas of infarction. The infarct volume of each animal was determined, as well as the average volumes for each group of ten.
Both peptides were myristoylated via an amide bond to the alpha-amino group of the N-terminal amino acid of the peptide.
Male Sprague Dawley rats (n=10 in each group) weighing between 230 and 290 g were used for this study. Experiments were performed on fasted rats (Free overnight access to water but not food). For permanent three pial vessel occlusion (3PVO) was performed as described previously (Forder J et al., 2005, supra). In brief, rats were anesthetized with a 0.5 ml/kg intramuscular injection of ketamine (100 mg/kg), acepromazine (2 mg/kg), and xylazine (5 mg/kg), supplemented with one-third of the initial dose as required. An anal temperature probe was inserted, and the animal was placed on a heating pad maintained at 37° C. The skull was exposed via a midline incision and scraped free of tissue. Using a dissecting microscope and a pneumatic dental drill, a 6- to 8-mm cranial window was made over the right somatosensory cortex (2 mm caudal and 5 mm lateral to bregma) by drilling a rectangle through the skull and lifting off the piece of skull while keeping the dura intact. The 3 pial arteriolar middle cerebral artery branches around the barrel cortex were selected and electrically cauterized through the dura. After the cauterizations, the scalp was sutured. […]

[8] = molecular target: T5, Src 40-49 (Homo sapiens, UniProt P12931); assay: Dot blot of ND2 constructs binding Src 40-49; settings: FIG. 4A
T5 construct: KPASADGHRG
From the text: (§3) We next examined the ability of the ND2 constructs to bind to a shorter version of the Src binding domain—Src 40-49 (FIGS. 4A, B). ND2 310-321, ND2 307-318, and ND2 310-318 were the top binders of Src 40-49 by dot blot analysis (FIG. 4A).

[9] = molecular target: T6, ND2, Src, NMDAR subunits, and PSD95 in hippocampal neurons (Rattus norvegicus, UniProt P11662+Q9WUD9); assay: Immunocytochemistry colocalization in 14DIV hippocampal neurons; type: cell-based; settings: 1 uM peptide for 1 h, day 14 neurons
T6 construct: endogenous in cells; host or cells: primary hippocampal neurons from E17/E18 Wistar rats, 14 DIV
Protocol: A series of experiments was performed to examine the localization of ND2, Src, NMDAR subunits, and PSD95 in hippocampal neurons by immunocytochemistry in the presence of Tat, Tat-ND2 310-321, or Src 40-49-Tat. Briefly, hippocampal neurons were isolated from embryonic day #17/E18 Wistar rats, and cultured in neurobasal media containing coverslips with B27 and glutamax. Cells were then treated for 1 hr with luM peptide before fixing by standard methods. Proteins were visualized using specific antibodies and secondary antibodies coupled to fluorescent molecules. Colocalization of fluorescence was calculated by merging the images in Photoshop and calculating the % colocalized between pairs as the total colocalized fluorescence clusters divided by the total number of clusters (e.g., % colocalized ND2 with Src=(total colocalized)/(total ND2 clusters); % colocalized Src with ND2=(total colocalized)/(total Src clusters)).
Hippocampal neurons cultured on coverslips were treated with 1 uM of Src 40-49-Tat, Tat-ND2 310-321 or Tat for 1 h at the day 14. Then neurons were incubated in 4% paraformaldehyde and 4% sucrose in phosphate-buffered saline (PBS) for 10 minutes followed by 5 minutes […] at room temperature (RT). Cells were permeabilized with 0.25% Triton X-100 in PBS for 5 minutes and by treatment with 5% donkey serum in PBS for 30 minutes at RT. The cultures were incubated with a mixture of the primary antibodies, raised in various species, in 0.25% Triton X-100 PBS for 2 hours at RT, washed, and incubated for 1 hour at RT with a mixture of species-specific secondary antibodies all raised in donkey and conjugated to either Texas Red, or FITC fluorophores (1:200 dilution in 0.25% Triton X-100 PBS). The coverslips were washed with PBS and mounted using ProLong Gold antifade reagent (Invitrogen). Images were collected using a 60× pan-fluor objective on a Nikon Eclipse TE 200 microscope. The images were analyzed with PhotoShop 7 (Adobe, San Jose, Calif.). Brightness and contrast were adjusted, sharpened using the unsharpen mask tool, and the images were merged for color colocalization.
For quantification of the colocalization, the maximum intensities of the fluorophore channels were normalized and the background fluorescence of each channel seen in the dendrites was subtracted, the color images were merged. Two clusters in two different channels were considered colocalizing when at least 66% of the surface of one clusters in one of the two channels overlapped with a clusters in the other channel. For each combination of antibodies, three independent immunofluorescence experiments were done. Each measurement was taken from a 50-m-long dendritic segment (with an average width of 2 m). Colocalization was expressed as the percent of the total clusters analyzed.

[10] = tested on: PACAP-enhanced NMDA-evoked currents in CA1 neurons; assay: Patch clamp of PACAP-enhanced NMDA-evoked currents in isolated CA1 neurons; type: cell-based, rat; settings: PACAP 1 nM in patch pipette, peptide 6 mM, 25 to 30 minutes after PACAP
From the text: Pituitary Adenylate Cyclase-activating Polypeptide (PACAP) selectively increases NMDA receptor mediated responses in rat neurons, and it is thought that this peptide is involved in the regulation of synaptic plasticity as well as both long term potentiation and depression. To examine the effect of ND2 310-321 and Src 40-49 on PACAP-enhanced NMDA-evoked currents, isolated CA1 neurons were subjected to a series of patch clamp experiments in the presence or absence of these peptides. […] ND2 310-321 can prevent PACAP-induced potentiation. Similar experiments were also performed using the Src-selective inhibitory peptide, Src(40-58) (14 mM), or the truncated peptide, Src(40-49) (6 mM). The responses prior to application of PACAP were normalized the responses at 25 to 30 minutes following application of PACAP. The bar graph indicates three groups of recordings from neurons and indicated the relative change in peak NMDAR currents under the three conditions. ND2 310-321, but not Src40-49, inhibits PACAP-enhanced NMDA-evoked currents. Thus, ND2 310-321 can be used to block PACAP enhanced NMDA-evoked signaling and can therefore be used in many neurological diseases and disorders associated with impaired with long term potentiation (e.g., aging, Alzheimer's, neurodegenerative diseases and neuronal disorders affect memory).

[11] = molecular target: T5, Src 40-49; assay: ELISA of ND2 constructs binding Src 40-49; settings: FIG. 4B
From the text: as §3

## STSITLLPMSNNVKMKWQFE [ND2 299-318]
[1]
  binding of biotinylated Src 40-58 (dot blot): binding was seen
[2]
  binding of biotin-Src 40-58 (ELISA): top binders

## YGRKKRRQRRRKPASADGHRG [Tat-Src40-49]
[3]
  inhibition of binding of biotinylated Src40-49 to ND2 310-321 (competition ELISA): inhibited
[4]
  binding of biotinylated ND2 310-321 (dot blot): bound ND2 310-321

## ITLLPMSNNVKMKWQFEHTK [ND2 302-321]
[1]
  binding of biotinylated Src 40-58 (dot blot): binding was seen

## NLYFYLRLIYSTSITLLPMSN [ND2 289-309]
[1]
  binding of biotinylated Src 40-58 (dot blot): binding was seen
[2]
  binding of biotin-Src 40-58 (ELISA): top binders

## Bio-sSrc 40-49: biotinylated scrambled control peptide (GAAKRPSDGH; also: biotinylated, position not given here)
[5]
  binding to coated Tat-ND2 310-321 (ELISA): no binding was seen

## YGRKKRRQRRRNVKMKWQFEHTK [Tat-ND2 310-321]
[6]
  mean arterial blood pressure after bolus: about one half of normal

## MSNNVKMKWQFEHTK [ND2 307-321]
[1]
  binding of biotinylated Src 40-58 (dot blot): binding was seen
[2]
  binding of biotin-Src 40-58 (ELISA): top binders

## YGRKKRRQRRRKLSSIESDV [Tat-NR2B9c]
[6]
  mean arterial blood pressure after bolus: about one half of normal
[7]; 3 nmol/g intravenous one hour post-surgery, 24 hours after surgery, n=10
  decline in infarct volume: approximately 40%

## MSNNVKMKWQFE [ND2 307-318]
[8]
  binding of Src 40-49 (dot blot): top binders; also recorded: strong binding

## NVKMKWQFE [ND2 310-318]
[8]
  binding of Src 40-49 (dot blot): top binders; also recorded: strong binding

## YGRKKRRQRRR [Tat]
[9]
  colocalization of Src and ND2: does not

## myristoyl- MSNNVKMKWQFEHTK (Myristoyl-MSNNVKMKWQFEHTK) [Myr2-ND2]
[7]; given intravenously 1 hour after onset of stroke, relative to Tat-ND2
  protection against damage from the stroke, second experiment (FIG. 22): equivalent or superior protection

## bio-Src 40-49: biotinylated Src 40-49 peptide (KPASADGHRG; also: biotinylated, position not given here)
[5]
  binding to coated Tat-ND2 310-321 (ELISA): able to bind in a concentration dependent manner

## KPASADGHRG [Src40-49]
[10]; listed as Src 40-49
  effect on PACAP-enhanced NMDA-evoked currents: does not
[4]
  binding of biotinylated ND2 310-321 (dot blot): bound ND2 310-321

## NVKMKWQFEHTK [ND2 310-321]
[1]
  binding of biotinylated Src 40-58 (dot blot): binding with high relative affinity
[2]
  binding of biotin-Src 40-58 (ELISA): top binders
[8]
  binding of Src 40-49 (dot blot): top binders; also recorded: strong binding
[10]
  effect on PACAP-enhanced NMDA-evoked currents: inhibits
[11]
  binding of Src 40-49 (ELISA): strongest binding

## NLYFYLRLIYSTSITLLPMSNNVKMKWQFEHTK (not fully specified) [ND2.1.4, GST-fusion protein of ND2 fragment AA 289-321]
[1]
  binding of biotinylated Src 40-58 (dot blot): most effective sub fragment for binding Src 40-58
[1]; listed as ND 2.1.4
  binding of biotinylated Src 40-58 (dot blot): better than ND2.1.3
[2]
  binding of biotin-Src 40-58 (ELISA): concentration-dependent manner

B1: ND2.1: GST-fusion protein of ND2 sub fragment AA239-321 (protein)
chain: WLTPLIPSTLLSLGGLPPLTGFLPKWAIIEEFTKNNSLIIPTIMATITLLNLYFYLRLIYSTSITLLPMSNNVKMKWQFEHTK
modifications: left off: a dimerising Fc or GST
[1]
  binding of biotinylated Src 40-58 (dot blot): can also bind Src 40-58; also recorded: better than ND2.1.3
[2]
  binding of biotin-Src 40-58 (ELISA): concentration-dependent manner
